This is an account of results in paper PMC9519731, “The soluble form of CD160 acts as a tumor mediator of immune escape in melanoma” (Cancer Immunology, Immunotherapy : CII, 2022).

The data set deals with the molecule itself. The data set is described as follows: immunoprecipitation, non-reducing SDS-PAGE and Western blot; culture supernatants of confluent melanoma cell lines immunoprecipitated with H3 mAb, SDS-10% PAGE under non-reducing condition, blot with HRP-coupled H3 mAb. (In general: Immunoblotting shows a protein as a band on a membrane.)

B1: soluble form of CD160 (sCD160) released by melanoma cell lines (natural protein, UniProt O95971 25-159, looked up)
chain: GCINITSSASQEGTRLNLICTVWHKKEEAEGFVVFLCKDRSGDCSPETSLKQLRLKRDPGIDGVGEISSQLMFTISQVTPLHSGTYQCCARSQKSGIRLQGHFFSILFTETGNYTVTGLKQRQHLEFSHNEGTLS
notes: soluble form of CD160, derived from the CD160-GPI isoform, released by human melanoma cell lines; recovered as a 55-kDa species called dimeric sCD160; also called secreted sCD160; sCD160 produced by WM1361; source: endogenous, culture supernatant of melanoma cell lines (WM1361, COLO829, SKMEL5)
For the protein B1, the “stoichiometry N” value worked out at 2.

As a reminder, the stoichiometry N is the number of molecules, sites or subunits per partner or assembly.
